Results on one substance are retold here after publication PMC4771820.

Usually stoichiometry N stands for the number of molecules, sites or subunits per partner or assembly.

The assay has as its target Paracoccus denitrificans FnrP (Paracoccus denitrificans). Briefly: SEC; analytical gel filtration under anaerobic conditions, calibrated Sephacryl S-100HR 16/50, assay buffer (25 mM HEPES, 2.5 mM CaCl2, 100 mM NaCl, 100 mM NaNO3, pH 7.5), 1 ml/min; reconstituted [4Fe–4S] FnrP (~90 % loaded) loaded at ~28 μM [4Fe–4S], in the absence of O2. (In general: Size exclusion chromatography separates by hydrodynamic size, large species first.)

Consider “Paracoccus denitrificans FnrP (natural protein)”, for which the stoichiometry N came to 2.
